Blank lines part the entries; values can stand above or below the molecule they belong to.
Key:
bovine cathepsin L [1] = target: T1, bovine cathepsin L (bovine, UniProt P25975 118-334, limits assumed); experiment: enzyme inhibition, Dixon plots at different substrate concentrations (Z-Phe-Arg-MCA)
T1 construct: also called chatepsin L

bovine cathepsin L [2] = target: T1, bovine cathepsin L; experiment: enzyme inhibition (method not restated here)
papain = papain (UniProt P00784); experiment: enzyme inhibition, Dixon plots at different substrate concentrations (BANA)
bovine cathepsin L [3] = target: T1, bovine cathepsin L; experiment: enzyme inhibition (method and origin of the value not stated)

T1 sequence (P25975 118-334 limits assumed): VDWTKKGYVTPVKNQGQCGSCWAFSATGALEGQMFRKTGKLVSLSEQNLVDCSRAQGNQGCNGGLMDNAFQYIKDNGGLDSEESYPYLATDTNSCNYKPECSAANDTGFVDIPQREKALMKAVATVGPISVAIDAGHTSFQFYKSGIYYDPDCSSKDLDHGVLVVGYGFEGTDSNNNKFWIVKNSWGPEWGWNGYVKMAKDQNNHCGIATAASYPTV
Chain of papain (P00784 134-345 limits assumed): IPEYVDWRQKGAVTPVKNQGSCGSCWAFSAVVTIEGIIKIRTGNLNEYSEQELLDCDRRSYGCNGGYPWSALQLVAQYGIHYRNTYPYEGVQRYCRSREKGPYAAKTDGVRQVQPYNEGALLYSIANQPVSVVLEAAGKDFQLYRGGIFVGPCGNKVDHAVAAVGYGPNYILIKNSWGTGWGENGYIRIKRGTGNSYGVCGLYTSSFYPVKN

Ki (bovine cathepsin L [1]): 1.9 nM | Ki (bovine cathepsin L [2]): 5.9 nM | Ki (papain): 1.68 nM
Molecule: psoriastatin preparation (purified from psoriatic scale extract)

Ki (bovine cathepsin L [3]): 0.067 nM
B1: squamous cell carcinoma-antigen (SCC-A) (other, UniProt P29508 1-390, looked up)
chain: MNSLSEANTKFMFDLFQQFRKSKENNIFYSPISITSALGMVLLGAKDNTAQQIKKVLHFDQVTENTTGKAATYHVDRSGNVHHQFQKLLTEFNKSTDAYELKIANKLFGEKTYLFLQEYLDAIKKFYQTSVESVDFANAPEESRKKINSWVESQTNEKIKNLIPEGNIGSNTTLVLVNAIYFKGQWEKKFNKEDTKEEKFWPNKNTYKSIQMMRQYTSFHFASLEDVQAKVLEIPYKGKDLSMIVLLPNEIDGLQKLEEKLTAEKLMEWTSLQNMRETRVDLHLPRFKVEESYDLKDTLRTMGMVDIFNGDADLSGMTGSRGLVLSGVLHKAFVEVTEEGAEAAAATAVVGFGSSPASTNEEFHCNHPFLFFIRQNKTNSILFYGRFSSP

Reference: US20030072752A1 (GENERAL HOSPITAL CORPORATION A MASSACHUSETTS, published 2003)
